The text below walks through data of patent publication US11110182B2, “Multifunctional RNA nanoparticles and methods for treating cancer and therapeutic resistant cancer” (University of Cincinnati, priority 2016, dated 2021).

In the data set the test system is BT474 cells. The data set can be described thus: Transwell migration and invasion assay, BT474 cells. In kind it is cell-based, human. The conditions noted are these: for invasion ability: Matrigel-coated transwell. As for the experimental part:
FIG. 3A) BT474 cells were incubated with 10 μg/mL control and pRNA-HER2apt-siMED1 nanoparticles for 48 h, and MED1 mRNA level was determined by real-time PCR. FIG. 3B) BT474 cells were incubated directly with (as indicated by -) or transfected with indicated pRNAs using lipofectamine 2000. At 48 h post treatment, MED1 protein levels were determined by western blotting. FIG. 3C) BT474 cells were treated with 10 μg/mL pRNA nanoparticles for 48 h and assayed for cell viability by MTT assay. FIG. 3D) Cells were treated as above and seeded for migration, and FIG. 3E) invasion transwell assays. Scale bar: 50 μm. FIG. 3F) After pRNA treatment for 48 h, the mRNA levels of ERα target genes TFF-1, FIG. 3G) c-Myc, and FIG. 3H) cyclin D1 in BT474 cells were determined by real-time PCR.
FIG. 4A) BT474 cells were treated with pRNA nanoparticles in combination with vehicle or 1 μM 4-hydroxy-tamoxifen (4-OHT) as indicated for 48 h, and assayed for cell viability by MTT assay. FIG. 4B) Cells were treated as above and the migration and FIG. 4C) invasion capabilities were examined. FIG. 4D) Cells were treated as above and assayed for in vitro mammosphere formation. FIG. 4E) The number of mammospheres was counted, and FIG. 4F) the mammosphere size was calculated. Scale bar: 10 μm.
FIG. 11. […] BT474 cells were treated with pRNA nanoparticles alone or together with 1 μM 4-hydroxy-tamoxifen (4-OHT) for 48 h. Cell migration and invasion were then examined using transwell assay. Photos were recorded using an Olympus SZX12 microscope. Scale bar: 100 μm.
Migration and metastasis assay. The 8-μm-pore-size polycarbonate membrane, which separates the two chambers of a 6.5-mm Transwell (Costar), was coated with or without 1:8 DMEM-diluted Matrigel (Corning). Transwell assay was performed as previously described.^57 Briefly, BT474 cells were treated with pRNAs alone or together with 4-hydroxy-tamoxifen (4-OHT) for 48 h and starved with serum-free DMEM containing 0.2% BSA overnight. On the next day, cells were collected and 2×10^5 cells were seeded to the upper chamber of Transwell. The lower chamber was filled with 600 μL DMEM medium containing 10% FBS. After incubation at 37° C. for 24 h, cells on the membranes were fixed and stained with 0.1% crystal violet in 20% ethanol solution. Cells at top side of membranes were removed completely, and cells at the bottom side were examined with an Olympus SZX12 microscope and counted. • Mammosphere culture and breast cancer stem cell analyses. BT474 cells were treated with pRNAs for 48 h. Then, cells were suspended in DMEM/F12 medium supplemented with 1×B27 (Thermo Fisher), 20 ng/mL bFGF and 20 ng/mL EGF (R&D), and added into 24-well ultralow attachment plates. After treatment with or without 1 μM 4-OHT for 7 days, mammosphere formation was recorded using an Axiovert S100 TV inverted microscope (Zeiss). Xenograft tumor tissues were cut into small pieces and digested with trypsin and collagenase at 37° C. for 1 h, and tumor cells were collected and rinsed with pre-cold PBS. All cells were stained with FITC-conjugated anti-CD44 antibody and PE-conjugated anti-CD24 antibody (BD Pharmingen) in the dark on ice for 30 min. After resuspension with 0.5 mL PBS buffer, CD44^+/CD24^−/low cell population was analyzed by flow cytometry. • Orthotopic xenograft breast tumor mouse model, in vivo imaging and anti-tumor therapy. […]

The mark [1] stands for this setting: BT474, in combination with 1 μM 4-hydroxy-tamoxifen, 48 h.

B1: pRNA-HER2apt-siMED1: 3-WJ pRNA nanoparticle bearing a HER2-targeting RNA aptamer and two different MED1 siRNAs; strands p1 SEQ ID NO: 3, p2 SEQ ID NO: 4 (nucleic acid)
chain 1: GGACAGUGAAAGUGAGUCAAAGGAUCAAUCAUGGCCAAAGAUGUUACUUUGAGAGCCUU
chain 2: GGCUCUCAAAGUAACAUCUAAGGCCAUGUGUAUGUGGGGGGAGGACGAUGCGGUCUGCUGUGCUUGAUAUGCCCCAGACGACUCGCCCCCCACAUACUUUGUUGAUCCAAUGACUCACUUUCACUGUCCUU
modifications: 2'-F modification; third strand may lack entry; pRNA-HER2apt-siMED1, p1; pRNA-HER2apt-siMED1, p2
On to B1, for which the invasion ability result (BT474, 48 h treatment) was “specifically suppressed”. Further, the migration ability result (BT474, 48 h treatment, transwell without Matrigel) was “specifically suppressed”. Under setting [1], the “effect on tamoxifen inhibition of invasion” value is listed as “significantly enhanced the inhibitory effects of tamoxifen” and the “effect on tamoxifen inhibition of migration” value was “significantly enhanced the inhibitory effects of tamoxifen”.

B2: pRNA-HER2apt^mut-siMED1: control pRNA nanoparticle with mutant HER2 aptamer; strands p1 SEQ ID NO: 5, p2 SEQ ID NO: 6 (nucleic acid)
chain 1: GGACAGUGAAAGUGAGUCAAAGGAUCAAUCAUGGCCAAAGAUGUUACUUUGAGAGCCUU
chain 2: GGCUCUCAAAGUAACAUCUAAGGCCAUGUGUAUGUGGGAUGAGGAGUAUGAAGAUACCUGUACUUGAUAUGCCCCAGACGACAUUCCCCCCACAUACUUUGUUGAUCCAAUGACUCACUUUCACUGUCCUU
modifications: pRNA-HER2apt(mut)-siMED1, p1; pRNA-HER2apt(mut)-siMED1, p2
As for B2, for the setting “BT474, 48 h treatment”, the invasion ability entry was “not”.
